Source: US12630600B2 (MEDIMMUNE LIMITED, priority 2022, dated 2026)
Starred links: 1 amine or outer side, 2 acyl side, 3 side chain; linkers in the order of their positions; H or OH if unused. Non-standard residues stand in square brackets, D forms with d. Groups on a side chain read outwards from the residue. Primed or numbered codes have the meaning given here. No end group written: not given here. *: point of attachment. C18 diacid = O=C(O)CCCCCCCCCCCCCCCCC(=O)*; γGlu = O=C(O)[C@H](CCC(=O)[*:2])N[*:1]; Stearoyl = CCCCCCCCCCCCCCCCCC(=O)*; αMeF = C[C@](N)(Cc1ccccc1)C(=O)O; PEG2′ = polyethylene glycol 2; αMeS = C[C@](N)(CO)C(=O)O; AEEA = NCCOCCOCC(=O)O; Aib = CC(C)(N)C(=O)O

B1: Peptide 1 (peptide)
peptide: HSQGS[αMeF]TSDVSK[Aib]LDSK([AEEA-AEEA-γGlu-C18 diacid])AAQD[αMeF]VQ[Aib]IAN-NH2
modifications: N-terminus assumed
SMILES: CC[C@H](C)[C@H](NC(=O)C(C)(C)NC(=O)[C@H](CCC(N)=O)NC(=O)[C@@H](NC(=O)[C@](C)(Cc1ccccc1)NC(=O)[C@H](CC(=O)O)NC(=O)[C@H](CCC(N)=O)NC(=O)[C@H](C)NC(=O)[C@H](C)NC(=O)[C@H](CCCCNC(=O)COCCOCCNC(=O)COCCOCCNC(=O)CC[C@H](NC(=O)CCCCCCCCCCCCCCCCC(=O)O)C(=O)O)NC(=O)[C@H](CO)NC(=O)[C@H](CC(=O)O)NC(=O)[C@H](CC(C)C)NC(=O)C(C)(C)NC(=O)[C@H](CCCCN)NC(=O)[C@H](CO)NC(=O)[C@@H](NC(=O)[C@H](CC(=O)O)NC(=O)[C@H](CO)NC(=O)[C@@H](NC(=O)[C@](C)(Cc1ccccc1)NC(=O)[C@H](CO)NC(=O)CNC(=O)[C@H](CCC(N)=O)NC(=O)[C@H](CO)NC(=O)[C@@H](N)Cc1c[nH]cn1)[C@@H](C)O)C(C)C)C(C)C)C(=O)N[C@@H](C)C(=O)N[C@@H](CC(N)=O)C(N)=O
B2: Peptide 15 (peptide)
peptide: H[Aib]HGS[αMeF]TSDVSK[αMeF]LDSK([AEEA-AEEA-γGlu-C18 diacid])AARD[αMeF]VE[Aib]IANT-NH2
modifications: N-terminus assumed
SMILES: CC[C@H](C)[C@H](NC(=O)C(C)(C)NC(=O)[C@H](CCC(=O)O)NC(=O)[C@@H](NC(=O)[C@](C)(Cc1ccccc1)NC(=O)[C@H](CC(=O)O)NC(=O)[C@H](CCCNC(=N)N)NC(=O)[C@H](C)NC(=O)[C@H](C)NC(=O)[C@H](CCCCNC(=O)COCCOCCNC(=O)COCCOCCNC(=O)CC[C@H](NC(=O)CCCCCCCCCCCCCCCCC(=O)O)C(=O)O)NC(=O)[C@H](CO)NC(=O)[C@H](CC(=O)O)NC(=O)[C@H](CC(C)C)NC(=O)[C@](C)(Cc1ccccc1)NC(=O)[C@H](CCCCN)NC(=O)[C@H](CO)NC(=O)[C@@H](NC(=O)[C@H](CC(=O)O)NC(=O)[C@H](CO)NC(=O)[C@@H](NC(=O)[C@](C)(Cc1ccccc1)NC(=O)[C@H](CO)NC(=O)CNC(=O)[C@H](Cc1c[nH]cn1)NC(=O)C(C)(C)NC(=O)[C@@H](N)Cc1c[nH]cn1)[C@@H](C)O)C(C)C)C(C)C)C(=O)N[C@@H](C)C(=O)N[C@@H](CC(N)=O)C(=O)N[C@H](C(N)=O)[C@@H](C)O
B3: Peptide 19 (peptide)
peptide: H[Aib]HGS[αMeF]TSDVSK[αMeF]LDSK([AEEA-AEEA-γGlu-γGlu-C18 diacid])AARD[αMeF]VQ[Aib]IANT-NH2
modifications: N-terminus assumed
SMILES: CC[C@H](C)[C@H](NC(=O)C(C)(C)NC(=O)[C@H](CCC(N)=O)NC(=O)[C@@H](NC(=O)[C@](C)(Cc1ccccc1)NC(=O)[C@H](CC(=O)O)NC(=O)[C@H](CCCNC(=N)N)NC(=O)[C@H](C)NC(=O)[C@H](C)NC(=O)[C@H](CCCCNC(=O)COCCOCCNC(=O)COCCOCCNC(=O)CC[C@H](NC(=O)CC[C@H](NC(=O)CCCCCCCCCCCCCCCCC(=O)O)C(=O)O)C(=O)O)NC(=O)[C@H](CO)NC(=O)[C@H](CC(=O)O)NC(=O)[C@H](CC(C)C)NC(=O)[C@](C)(Cc1ccccc1)NC(=O)[C@H](CCCCN)NC(=O)[C@H](CO)NC(=O)[C@@H](NC(=O)[C@H](CC(=O)O)NC(=O)[C@H](CO)NC(=O)[C@@H](NC(=O)[C@](C)(Cc1ccccc1)NC(=O)[C@H](CO)NC(=O)CNC(=O)[C@H](Cc1c[nH]cn1)NC(=O)C(C)(C)NC(=O)[C@@H](N)Cc1c[nH]cn1)[C@@H](C)O)C(C)C)C(C)C)C(=O)N[C@@H](C)C(=O)N[C@@H](CC(N)=O)C(=O)N[C@H](C(N)=O)[C@@H](C)O
B4: Peptide 17 (peptide)
peptide: H[Aib]HGS[αMeF]TSDVSK[αMeF]LDSK([AEEA-AEEA-γGlu-C18 diacid])AARD[αMeF]VESIANT-NH2
modifications: N-terminus assumed
SMILES: CC[C@H](C)[C@H](NC(=O)[C@H](CO)NC(=O)[C@H](CCC(=O)O)NC(=O)[C@@H](NC(=O)[C@](C)(Cc1ccccc1)NC(=O)[C@H](CC(=O)O)NC(=O)[C@H](CCCNC(=N)N)NC(=O)[C@H](C)NC(=O)[C@H](C)NC(=O)[C@H](CCCCNC(=O)COCCOCCNC(=O)COCCOCCNC(=O)CC[C@H](NC(=O)CCCCCCCCCCCCCCCCC(=O)O)C(=O)O)NC(=O)[C@H](CO)NC(=O)[C@H](CC(=O)O)NC(=O)[C@H](CC(C)C)NC(=O)[C@](C)(Cc1ccccc1)NC(=O)[C@H](CCCCN)NC(=O)[C@H](CO)NC(=O)[C@@H](NC(=O)[C@H](CC(=O)O)NC(=O)[C@H](CO)NC(=O)[C@@H](NC(=O)[C@](C)(Cc1ccccc1)NC(=O)[C@H](CO)NC(=O)CNC(=O)[C@H](Cc1c[nH]cn1)NC(=O)C(C)(C)NC(=O)[C@@H](N)Cc1c[nH]cn1)[C@@H](C)O)C(C)C)C(C)C)C(=O)N[C@@H](C)C(=O)N[C@@H](CC(N)=O)C(=O)N[C@H](C(N)=O)[C@@H](C)O
B5: Peptide 16 (peptide)
peptide: H[Aib]HGS[αMeF]TSDVSK[αMeF]LDSK([AEEA-AEEA-γGlu-C18 diacid])AARD[αMeF]IA[Aib]IANT-NH2
modifications: N-terminus assumed
SMILES: CC[C@H](C)[C@H](NC(=O)C(C)(C)NC(=O)[C@H](C)NC(=O)[C@@H](NC(=O)[C@](C)(Cc1ccccc1)NC(=O)[C@H](CC(=O)O)NC(=O)[C@H](CCCNC(=N)N)NC(=O)[C@H](C)NC(=O)[C@H](C)NC(=O)[C@H](CCCCNC(=O)COCCOCCNC(=O)COCCOCCNC(=O)CC[C@H](NC(=O)CCCCCCCCCCCCCCCCC(=O)O)C(=O)O)NC(=O)[C@H](CO)NC(=O)[C@H](CC(=O)O)NC(=O)[C@H](CC(C)C)NC(=O)[C@](C)(Cc1ccccc1)NC(=O)[C@H](CCCCN)NC(=O)[C@H](CO)NC(=O)[C@@H](NC(=O)[C@H](CC(=O)O)NC(=O)[C@H](CO)NC(=O)[C@@H](NC(=O)[C@](C)(Cc1ccccc1)NC(=O)[C@H](CO)NC(=O)CNC(=O)[C@H](Cc1c[nH]cn1)NC(=O)C(C)(C)NC(=O)[C@@H](N)Cc1c[nH]cn1)[C@@H](C)O)C(C)C)[C@@H](C)CC)C(=O)N[C@@H](C)C(=O)N[C@@H](CC(N)=O)C(=O)N[C@H](C(N)=O)[C@@H](C)O
B6: Peptide 18 (peptide)
peptide: H[Aib]HGS[αMeF]TSDVSK[αMeF]LDSK([AEEA-AEEA-γGlu-C18 diacid])AARD[αMeF]VQSIANT-NH2
modifications: N-terminus assumed
SMILES: CC[C@H](C)[C@H](NC(=O)[C@H](CO)NC(=O)[C@H](CCC(N)=O)NC(=O)[C@@H](NC(=O)[C@](C)(Cc1ccccc1)NC(=O)[C@H](CC(=O)O)NC(=O)[C@H](CCCNC(=N)N)NC(=O)[C@H](C)NC(=O)[C@H](C)NC(=O)[C@H](CCCCNC(=O)COCCOCCNC(=O)COCCOCCNC(=O)CC[C@H](NC(=O)CCCCCCCCCCCCCCCCC(=O)O)C(=O)O)NC(=O)[C@H](CO)NC(=O)[C@H](CC(=O)O)NC(=O)[C@H](CC(C)C)NC(=O)[C@](C)(Cc1ccccc1)NC(=O)[C@H](CCCCN)NC(=O)[C@H](CO)NC(=O)[C@@H](NC(=O)[C@H](CC(=O)O)NC(=O)[C@H](CO)NC(=O)[C@@H](NC(=O)[C@](C)(Cc1ccccc1)NC(=O)[C@H](CO)NC(=O)CNC(=O)[C@H](Cc1c[nH]cn1)NC(=O)C(C)(C)NC(=O)[C@@H](N)Cc1c[nH]cn1)[C@@H](C)O)C(C)C)C(C)C)C(=O)N[C@@H](C)C(=O)N[C@@H](CC(N)=O)C(=O)N[C@H](C(N)=O)[C@@H](C)O
B7: Peptide 21 (peptide)
peptide: H[Aib]HGS[αMeF]TSDVSK[αMeF]LDSK([γGlu-C18 diacid])AAQD[αMeF]VESIANT-NH2
modifications: N-terminus assumed
SMILES: CC[C@H](C)[C@H](NC(=O)[C@H](CO)NC(=O)[C@H](CCC(=O)O)NC(=O)[C@@H](NC(=O)[C@](C)(Cc1ccccc1)NC(=O)[C@H](CC(=O)O)NC(=O)[C@H](CCC(N)=O)NC(=O)[C@H](C)NC(=O)[C@H](C)NC(=O)[C@H](CCCCNC(=O)CC[C@H](NC(=O)CCCCCCCCCCCCCCCCC(=O)O)C(=O)O)NC(=O)[C@H](CO)NC(=O)[C@H](CC(=O)O)NC(=O)[C@H](CC(C)C)NC(=O)[C@](C)(Cc1ccccc1)NC(=O)[C@H](CCCCN)NC(=O)[C@H](CO)NC(=O)[C@@H](NC(=O)[C@H](CC(=O)O)NC(=O)[C@H](CO)NC(=O)[C@@H](NC(=O)[C@](C)(Cc1ccccc1)NC(=O)[C@H](CO)NC(=O)CNC(=O)[C@H](Cc1c[nH]cn1)NC(=O)C(C)(C)NC(=O)[C@@H](N)Cc1c[nH]cn1)[C@@H](C)O)C(C)C)C(C)C)C(=O)N[C@@H](C)C(=O)N[C@@H](CC(N)=O)C(=O)N[C@H](C(N)=O)[C@@H](C)O

Key:
[1] = biological target: human GLP-1 receptor (human, UniProt P43220); experiment: cell-based or functional assay
[2] = biological target: human glucagon receptor (human, UniProt P47871); experiment: cell-based or functional assay

Binder	cAMP production, hGLP-1R EC50 (pM) [1]	cAMP production, hGluc-R EC50 (pM) [2]
B1	3200 pM	> 27100 pM
B2	33.1 pM	61.4 pM
H[αMeS]QGS[αMeF]TSDVSKILDSK([PEG2′-PEG2′-γGlu-Stearoyl])AAQD[αMeF]VQ[Aib]IINT-NH2 [Peptide 133]	1.06 pM	30 pM
B3	38.3 pM	133 pM
B4	45 pM	135 pM
B5	33 pM	105 pM
B6	20.5 pM	122 pM
B7	378 pM	68.8 pM
